Test results: the supplement of paper PMC12764529
± gives the half width of the 95% confidence interval.

What was measured:
[1] = folding stability dG unfold from trypsin proteolysis; higher = more stable
How it was run: (§1)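 Digests were run with trypsin and chymotrypsin at 11 concentrations in threefold dilutions, plus a no-protease condition, on designed mini-proteins in a PA-tagged cDNA display construct. The mini-proteins were under 80 residues, had no cysteine, and were kept only when AlphaFold2 dimer inter-PAE was above 15. After sequencing, Bayesian fitting of the counts gave K50, from which unfolding free energy was derived against a sequence-predicted unfolded-state K50 and a shared folded-state K50, per protease or combined.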

[2] = folding stability dG unfold from chymotrypsin proteolysis; higher = more stable
How it was run: as §1

[3] = folding stability dG unfold (combined trypsin and chymotrypsin); higher = more stable
How it was run: as §1

Sequence | folding stability dG unfold [1] | folding stability dG unfold [2] | folding stability dG unfold [3]
SAGGSAGGSAGGMKYTIKVTTTYPDGTVTEYTFPSSVSKEEIIKELPSDVVDITFTETASSAGGSAGGSAGG [r7_288_JUSTAS] | 2.17 ± 0.066 kcal/mol | 2.17 ± 0.026 kcal/mol | 2.26 ± 0.04 kcal/mol
SAGGSAGGSAGGMLALIYGKEKPILLSAEEILNNPELLKELEKKGYPIVKIEFFKEEELSAGGSAGGSAGGS [r10_396_TrMRF] | 1.07 ± 0.049 kcal/mol | 0.478 ± 0.15 kcal/mol | 0.817 ± 0.097 kcal/mol
SAGGSAGGSAGGMLKIKVYRFDKNGKLVEEEEIELPENVKEIVIKDEKTGKYYKVEIVDSAGGSAGGSAGGS [r10_970_TrROS_Hall] | 1.25 ± 0.053 kcal/mol | 2.02 ± 0.11 kcal/mol | 1.76 ± 0.15 kcal/mol
SAGGSAGGSAGGMLKITITTPGEEREFVIPTPEPEPPGEEEVAKELGLEDVEVEVEEVLESAGGSAGGSAGG [r11_219_JUSTAS] | 0.118 ± 0.04 kcal/mol | -0.0518 ± 0.1 kcal/mol | 0.0103 ± 0.12 kcal/mol
SAGGSAGGSAGGMLKTKVTVDPTPDGVTRVTETTYDPSTGALVKTSTTIVVPGTGEVTAVSAGGSAGGSAGG [r7_804_JUSTAS] | -0.779 ± 0.18 kcal/mol | 1.04 ± 0.031 kcal/mol | 0.669 ± 0.062 kcal/mol
SAGGSAGGSAGGMMKTTITITLPPNSSKEEAEKIKEEGLPAEEIVVEKNPDGTRVVTILESAGGSAGGSAGG [r11_97_JUSTAS] | -0.915 ± 0.31 kcal/mol | 0.657 ± 0.051 kcal/mol | 0.237 ± 0.15 kcal/mol
SAGGSAGGSAGGMPDGAEFELEFEFELPDGYRVRLRIRARIGPDGVVEFEVEVEVYEVPDSAGGSAGGSAGG [r7_125_TrMRF] | 4.58 ± 0.15 kcal/mol | 5.13 ± 0.12 kcal/mol | 5.01 ± 0.13 kcal/mol
SAGGSAGGSAGGMPIKVEEYELPNGEKILKEISPEGVVKVYKVDPVNGKKEVIEVIPINKSAGGSAGGSAGG [r7_898_JUSTAS] | 0.446 ± 0.094 kcal/mol | 1.1 ± 0.073 kcal/mol | 1.01 ± 0.19 kcal/mol
SAGGSAGGSAGGMPILEIDVAGDSPDIAIETAKAIVDELPTYNPENVKVIIKDGKVIIGSAGGSAGGSAGGS [r10_182_TrMRF] | 0.498 ± 0.018 kcal/mol | 1.66 ± 0.12 kcal/mol | 1.25 ± 0.15 kcal/mol
SAGGSAGGSAGGMPVIEIPIRPDPNGKPRSAEEIASKIKDRFGYPVKIVSVENNHITITVSAGGSAGGSAGG [r17_426_TrROS] | 0.166 ± 0.076 kcal/mol | 0.983 ± 0.066 kcal/mol | 0.707 ± 0.18 kcal/mol
SAGGSAGGSAGGMPVTFTGENQPVEVLSVDPERPVVVVYYPPTGTLLVALPPTGKVFPVSAGGSAGGSAGGS [r10_440_TrMRF] | -0.867 ± 0.54 kcal/mol | 0.492 ± 0.15 kcal/mol | 0.18 ± 0.14 kcal/mol
SAGGSAGGSAGGMRVYEFDSEEEAQAFAEELRAAEPDVREVTIERDPETGKYRVTVVAESAGGSAGGSAGGS [r10_544_JUSTAS] | 4.24 ± 0.17 kcal/mol | 4.69 ± 0.091 kcal/mol | 4.62 ± 0.14 kcal/mol
SAGGSAGGSAGGMTIPLEFEFPDGRRLRITYHIEPSEDGLKITAEVEIEPIPEPPLPSDSAGGSAGGSAGGS [r10_1200_TrMRF] | 1.93 ± 0.14 kcal/mol | 3.64 ± 0.13 kcal/mol | 3.31 ± 0.26 kcal/mol
SAGGSAGGSAGGMTLTIPEEVLKKALEEGDEELLKEVVEKAGVKPEDTEVIAVTPEDLLESAGGSAGGSAGG [r7_7_JUSTAS] | 0.56 ± 0.072 kcal/mol | 0.919 ± 0.07 kcal/mol | 0.822 ± 0.12 kcal/mol
SAGGSAGGSAGGMTVERDPEKPVVTVTITDPSGASIVVEIPYETEEEAEAAVKKVIEELASAGGSAGGSAGG [r7_756_JUSTAS] | 2.11 ± 0.091 kcal/mol | 1.53 ± 0.07 kcal/mol | 1.83 ± 0.13 kcal/mol
